B1: anti-Claudin 18.2 scFv-hIgG2Fc, clone 2A10 (Fc fusion)
chain: QVQLQESGPGLVKPSETLSLTCTVSAGSISSYYWNWIRQPAGKGLEWIGRIYTSGSTNYNPSLRSRVTMSVDTSKNQFSLKLSSVTATDTAVYYCASASYTYFDSFDIWGQGTMVTVSSGGGGSGGGGSGGGGSGGGGSDIQLTQSPSFLSASVGDRVTITCRASQDIRNFLAWYQQKPGKAPKLLIYAASTLQSGVPSRFSGSGSGTEFALTVSSLQPEDFATYYCQQVNSYPRTFGQGTKVEIK
notes: linker and orientation in the Fc fusion are not restated; not shown: human IgG2 Fc (hIgG2Fc)
B2: anti-Claudin 18.2 scFv-hIgG2Fc, clone 9G2 (Fc fusion)
chain: EVHLLESGGGLVQPWGSLTLSCAASGFTFSNYAMNWVRQAPGKGLEWVSGISGSGGSTYDADSVKGRFTISRDNSKNTLFLQMNSPRAEDTAVYYCATQGYSFGYFESWGQGTLVTVSSGGGGSGGGGSGGGGSGGGGSEIVLTQSPATLSLSPGERATLSCRASQNVNRYLAWYHQKPGQAPRLLIYDAFNRATGIPARFSGSGSGTDFTLTINSLEPEDFAVYYCQQRSDWPLTFGGGTKLEIK
notes: as for B1
B3: anti-Claudin 18.2 scFv-hIgG2Fc, clone 12H6 (Fc fusion)
chain: EVQLVESGGGLVQPGGSLRLSCAASGFTFSRYWMSWVRQAPGKGLEWVANIKHDGSEKYYVDSVKGRFTFSRDNAKTSLYLQMNSLRVEDTALYYCARYYGGPFDYWGQGTLVTVSSGGGGSGGGGSGGGGSGGGGSEIVLTQSPGTLSLSPGERATLSCRASQSVRSSYLAWYQQKPGQAPRLLIFGASSRATGIPDRFSGSGSGTDFTLTISRLEPEDFAVYYCQQFGSSLTFGGGTKVEIK
notes: as for B1

Biological target: T1, msCLDN18.1
T1 chain: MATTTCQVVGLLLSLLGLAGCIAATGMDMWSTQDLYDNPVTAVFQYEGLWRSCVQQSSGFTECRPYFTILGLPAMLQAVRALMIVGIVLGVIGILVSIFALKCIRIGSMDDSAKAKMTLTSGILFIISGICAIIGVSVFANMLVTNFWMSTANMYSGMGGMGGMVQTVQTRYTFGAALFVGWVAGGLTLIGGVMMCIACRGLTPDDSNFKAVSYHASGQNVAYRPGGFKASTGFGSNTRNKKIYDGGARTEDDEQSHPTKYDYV
Test: flow cytometry on HEK-293T overexpressing mouse Claudin 18.1; 5 µg/mL scFv-hIgG2Fc, detected with PE anti-human IgG Fcγ
Procedure: The stained samples were analyzed by flow cytometry.

Binder | binding result
B1 | binds
B2 | binds
B3 | binds
